In publication PMC3715468, “Structural and Functional Characterisation of TesA - A Novel Lysophospholipase A from Pseudomonas aeruginosa” (PLoS ONE, 2013):

What was measured:
Test in all cases: purified protein
Assay type in all cases: biochemical, Pseudomonas aeruginosa
[1] = test system: CCCCCCCCCCCC(=O)OC[C@@H](O)COP(=O)([O-])OCC[N+](C)(C)C; settings: pH 7.2; 37.0 °C
[2] = test system: CCCCCCCCCCCCCCCC(=O)OC[C@@H](O)COP(=O)([O-])OCC[N+](C)(C)C; settings: 20 mM Tris-HCl pH 7.2, 37 °C, 0.25% (v/v) Triton X-100, 1.5 mM NaN3, 30 min
[3] = test system: CCCCCC(=O)OC[C@@H](O)COP(=O)([O-])OCC[N+](C)(C)C; settings: pH 7.2; 37.0 °C

**Q.** How did the Km [1] turn out when TesA (Pseudomonas aeruginosa PAO1) was run?
**A.** The Km was 1780 ± 170 µM.

**Q.** What about the kcat/Km [1] of the same substance?
**A.** Its kcat/Km is 1.1e+06 M⁻¹ s⁻¹.

**Q.** What about the Km [2] of the same substance?
**A.** The Km was 2040 ± 180 µM.

**Q.** What about the kcat [2] of the same substance?
**A.** The kcat was 921 s⁻¹.

**Q.** What about the kcat/Km [2] of the same substance?
**A.** Its kcat/Km is 450000 M⁻¹ s⁻¹.

**Q.** And the Km [3]?
**A.** The Km was 7220 ± 920 µM.

**Q.** And the kcat/Km [3]?
**A.** The kcat/Km was 110000 M⁻¹ s⁻¹.
